B1: Example 66 (peptide)
chain: YXQGTFTSDFSXXLDKKAQXAFIEYLLEGGPSSGAPPPGGSX
modifications: synthetic construct; SITE 2: note = 2-Aminoisobutyric Acid; SITE 12: note = L-ornithine; SITE 13: note = alpha-methyl-leucine; SITE 17: note = Lysine is chemically modified through conjugation of the epsilon-amino group of the Lysine side chain with (2-[2-(2-Amino-ethoxy)-ethoxy]-acetyl)-(gamma-Glu)
B2: Example 48 (peptide)
chain: YXQGTFTSDFSKXLDKKAQXAFIEYLLEGGPSSGAPPPSEG
modifications: not fully specified; synthetic construct; SITE 2: note = 2-Aminoisobutyric Acid; SITE 13: note = alpha-methyl-leucine; SITE 17: note = Lysine is chemically modified through conjugation of the epsilon-amino group of the Lysine side chain with (2-[2-(2-Amino-ethoxy)-ethoxy]-acetyl)-(gamma-Glu)-CO-(CH2) 16-CO2H; SITE 20: n
B3: Example 50 (peptide)
chain: B2 chain with K12X
modifications: synthetic construct; SITE 2: note = 2-Aminoisobutyric Acid; SITE 12: note = L-ornithine; SITE 13: note = alpha-methyl-leucine; SITE 17: note = Lysine is chemically modified through conjugation of the epsilon-amino group of the Lysine side chain with (2-[2-(2-Amino-ethoxy)-ethoxy]-acetyl)-(gamma-Glu)
B4: Example 70 (peptide)
chain: B2 chain with K12X, G29X, S39G
modifications: synthetic construct; SITE 2: note = 2-Aminoisobutyric Acid; SITE 12: note = L-ornithine; SITE 13: note = alpha-methyl-leucine; SITE 17: note = Lysine is chemically modified through conjugation of the epsilon-amino group of the Lysine side chain with (2-[2-(2-Amino-ethoxy)-ethoxy]-acetyl)2-(gamma-Glu)
B5: Example 58 (peptide)
chain: B2 chain
modifications: synthetic construct; SITE 2: note = 2-Aminoisobutyric Acid; SITE 13: note = alpha-methyl-leucine; SITE 17: note = Lysine is chemically modified through conjugation of the epsilon-amino group of the Lysine side chain with (gamma-Glu)2-CO-(CH2)16-CO2H; SITE 20: note = 2-Aminoisobutyric Acid; SITE 41:
B6: Example 62 (peptide)
chain: B2 chain with K12X, S39G, E40G, G41S
modifications: synthetic construct; SITE 2: note = 2-Aminoisobutyric Acid; SITE 12: note = L-ornithine; SITE 13: note = alpha-methyl-leucine; SITE 17: note = Lysine is chemically modified through conjugation of the epsilon-amino group of the Lysine side chain with (2-[2-(2-Amino-ethoxy)-ethoxy]-acetyl)-(gamma-Glu)

Changes are numbered by the printed parent chain. Starred links: 1 amine or outer side, 2 acyl side, 3 side chain; linkers in the order of their positions; H or OH if unused. Non-standard residues stand in square brackets, D forms with d. Groups on a side chain read outwards from the residue. No end group written: not given here. *: point of attachment. C18 diacid = O=C(O)CCCCCCCCCCCCCCCCC(=O)*; γGlu = O=C(O)[C@H](CCC(=O)[*:2])N[*:1]; αMeL = CC(C)C[C@](C)(N)C(=O)O; Dab = NCC[C@H](N)C(=O)O; Dap = NC[C@H](N)C(=O)O; AEEA = NCCOCCOCC(=O)O; Aib = CC(C)(N)C(=O)O

Chain of hGLP-1R (P43220 24-463): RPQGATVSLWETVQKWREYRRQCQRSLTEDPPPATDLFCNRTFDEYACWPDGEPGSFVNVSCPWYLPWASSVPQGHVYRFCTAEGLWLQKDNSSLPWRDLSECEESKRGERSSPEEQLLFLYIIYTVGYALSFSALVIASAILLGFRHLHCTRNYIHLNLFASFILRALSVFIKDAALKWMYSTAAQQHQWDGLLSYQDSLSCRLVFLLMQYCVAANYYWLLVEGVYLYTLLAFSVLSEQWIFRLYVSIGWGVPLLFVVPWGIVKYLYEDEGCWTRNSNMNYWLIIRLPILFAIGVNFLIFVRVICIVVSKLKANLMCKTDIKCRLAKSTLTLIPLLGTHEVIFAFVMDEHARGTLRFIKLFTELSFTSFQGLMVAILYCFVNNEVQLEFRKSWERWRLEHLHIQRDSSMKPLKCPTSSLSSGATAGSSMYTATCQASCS
Chain of human glucagon receptor (human) (P47871 26-477): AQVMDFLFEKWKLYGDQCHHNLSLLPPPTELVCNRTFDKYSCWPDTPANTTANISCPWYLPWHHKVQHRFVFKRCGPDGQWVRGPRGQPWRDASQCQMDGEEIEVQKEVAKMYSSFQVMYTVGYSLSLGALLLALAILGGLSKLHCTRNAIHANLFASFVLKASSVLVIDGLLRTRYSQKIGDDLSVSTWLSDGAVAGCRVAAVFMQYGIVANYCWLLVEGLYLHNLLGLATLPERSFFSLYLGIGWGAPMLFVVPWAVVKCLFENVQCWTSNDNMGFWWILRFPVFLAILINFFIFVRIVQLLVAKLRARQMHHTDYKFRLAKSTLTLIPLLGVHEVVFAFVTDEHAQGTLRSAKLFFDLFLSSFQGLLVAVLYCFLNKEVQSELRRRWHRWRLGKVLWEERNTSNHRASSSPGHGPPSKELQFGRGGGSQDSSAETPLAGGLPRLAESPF

One experiment concerns the target hGLP-1R (Homo sapiens, UniProt P43220). Description: cell-based or functional assay.
B1: the Relative cAMP EC50 came to 3.86 nM and the cAMP Rel EC50, nM (in the presence of 1% HSA) turned out to be 329 nM.
On the same counts, the results for Y[Aib]QGTFTSDFS[Dap][αMeL]LDKK([AEEA-γGlu-C18 diacid])AQ[Aib]AFIEYLLEGGPSSGAPPPGGS-NH2 (ends and bridges not checked) [Example 68] are 3.07 nM and 612 nM.
On the same counts, the results for Y[Aib]QGTFTSDFS[Dab][αMeL]LDKK([AEEA-γGlu-C18 diacid])AQ[Aib]AFIEYLLEGGPSSGAPPPGGS-NH2 [Example 67] are 4.07 nM and 683 nM.
On the same counts, the results for B2 are 2.99 nM and 570 nM.
In the case of B3, the Relative cAMP EC50 was determined as 4.65 nM and the cAMP Rel EC50, nM (in the presence of 1% HSA) was 1110 nM.
Consider B4, for which the Relative cAMP EC50 worked out at 2.71 nM and the cAMP Rel EC50, nM (in the presence of 1% HSA) worked out at 620 nM.
The like results for B5 were, in that order, 2.93 nM and 20.7 nM.
The like results for B6 were, in that order, 2.72 nM and 299 nM.

The target of the next experiment is T1, human GIP receptor (human) (UniProt P48546).
T1 sequence (looked up): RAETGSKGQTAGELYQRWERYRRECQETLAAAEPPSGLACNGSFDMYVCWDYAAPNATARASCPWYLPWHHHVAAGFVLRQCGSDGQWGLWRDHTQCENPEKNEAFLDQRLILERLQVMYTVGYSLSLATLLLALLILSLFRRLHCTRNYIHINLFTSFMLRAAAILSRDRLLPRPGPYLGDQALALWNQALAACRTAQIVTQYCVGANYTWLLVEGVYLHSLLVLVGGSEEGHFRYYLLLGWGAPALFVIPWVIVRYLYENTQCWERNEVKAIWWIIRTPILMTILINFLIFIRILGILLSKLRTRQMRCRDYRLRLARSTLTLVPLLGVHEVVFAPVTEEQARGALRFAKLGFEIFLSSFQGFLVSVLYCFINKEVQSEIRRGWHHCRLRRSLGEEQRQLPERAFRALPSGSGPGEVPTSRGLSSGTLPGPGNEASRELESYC
Description: cell-based or functional assay.
On to B1, for which the Relative cAMP EC50 came out at 0.219 nM and the cAMP Rel EC50, nM (in the presence of 1% HSA) turned out to be 29.9 nM.
On the same counts, the results for Y[Aib]QGTFTSDFS[Dap][αMeL]LDKK([AEEA-γGlu-C18 diacid])AQ[Aib]AFIEYLLEGGPSSGAPPPGGS-NH2 (ends and bridges not checked) [Example 68] are 0.46 nM and 85.1 nM.
On the same counts, the results for Y[Aib]QGTFTSDFS[Dab][αMeL]LDKK([AEEA-γGlu-C18 diacid])AQ[Aib]AFIEYLLEGGPSSGAPPPGGS-NH2 [Example 67] are 0.34 nM and 73.3 nM.
With B2, the Relative cAMP EC50 came out at 0.27 nM and the cAMP Rel EC50, nM (in the presence of 1% HSA) is 46.9 nM.
The like results for B3 were, in that order, 0.29 nM and 69.6 nM.
On the same counts, the results for B4 are 0.102 nM and 27.4 nM.
The like results for B5 were, in that order, 0.175 nM and 3.75 nM.
With B6, the Relative cAMP EC50 is 0.146 nM and the cAMP Rel EC50, nM (in the presence of 1% HSA) was 31.2 nM.

Another experiment deals with human GLP1-R (SNAP-GLP-1R expressed in HEK293 cells) (human) (UniProt P43220). As to the kind of experiment: cell-based or functional assay.
Chain of human GLP1-R (SNAP-GLP-1R expressed in HEK293 cells) (human) (P43220 24-463): as the sequence (P43220 24-463) above
For B1, the GLP1R Internalization EC50 worked out at 42.1 nM and the Internalization % TOP amounted to 46.3%.
On the same counts, the results for Y[Aib]QGTFTSDFS[Dap][αMeL]LDKK([AEEA-γGlu-C18 diacid])AQ[Aib]AFIEYLLEGGPSSGAPPPGGS-NH2 (ends and bridges not checked) [Example 68] are 95.2 nM and 33.8%.
The like results for Y[Aib]QGTFTSDFS[Dab][αMeL]LDKK([AEEA-γGlu-C18 diacid])AQ[Aib]AFIEYLLEGGPSSGAPPPGGS-NH2 [Example 67] were, in that order, 50.9 nM and 31.1%.
The molecule B2 showed a GLP1R Internalization EC50 of 44 nM and an Internalization % TOP of 55.2%.
On the same counts, the results for B3 are 30.1 nM and 31.1%.
The like results for B4 were, in that order, 60 nM and 61.3%.
The like results for B5 were, in that order, 56.2 nM and 78.1%.
B6 registered a GLP1R Internalization EC50 of 40.3 nM and an Internalization % TOP of 44.9%.

The next experiment addresses human glucagon receptor (human) (UniProt P47871). As to the kind of experiment: cell-based or functional assay.
B1: the Relative cAMP EC50 was determined as 3.71 nM and the cAMP Rel EC50, nM (in the presence of 1% HSA) stood at 415 nM.
On the same counts, the results for Y[Aib]QGTFTSDFS[Dap][αMeL]LDKK([AEEA-γGlu-C18 diacid])AQ[Aib]AFIEYLLEGGPSSGAPPPGGS-NH2 (ends and bridges not checked) [Example 68] are 8.55 nM and 1160 nM.
Regarding Y[Aib]QGTFTSDFS[Dab][αMeL]LDKK([AEEA-γGlu-C18 diacid])AQ[Aib]AFIEYLLEGGPSSGAPPPGGS-NH2 [Example 67], the Relative cAMP EC50 worked out at 3.7 nM and the cAMP Rel EC50, nM (in the presence of 1% HSA) is 781 nM.
On the same counts, the results for B2 are 3.8 nM and 728 nM.
On the same counts, the results for B3 are 4.25 nM and 1040 nM.
The like results for B4 were, in that order, 6.04 nM and 717 nM.
For the molecule B5, the Relative cAMP EC50 came to 4.86 nM and the cAMP Rel EC50, nM (in the presence of 1% HSA) came out at 115 nM.
The like results for B6 were, in that order, 3.96 nM and 396 nM.
